Source: patent US20110123511

What was measured:
[1] = tested on: GST-fusion histone H3 peptide (residues 1-57), K27R mutant [GST: P08515]
[2] = tested on: GST-fusion histone H3 peptide (residues 1-57), wild-type
[3] = tested on: H3 peptide containing residues 15-30
[4] = tested on: H3 peptide phosphorylated at S28
[5] = tested on: H3 peptide previously di-methylated at K27
[6] = tested on: core histone H2A
[7] = tested on: core histone H2B
[8] = tested on: core histone H4
[9] = tested on: full-length free histone H3 (individual core histone)
[10] = tested on: peptide containing H3 residues 1-20

Row | Substance | HMT activity on GST-histone H3 (residues 1-57) [1] | HMT activity on GST-histone H3 (residues 1-57) [2] | methylation activity with H3 peptides (14C-methyl-SAM) [3] | methylation activity with H3 peptides (14C-methyl-SAM) [4] | methylation activity with H3 peptides (14C-methyl-SAM) [5] | histone methyltransferase activity [6] | histone methyltransferase activity [7] | histone methyltransferase activity [8] | histone methyltransferase activity [9] | methylation activity with H3 peptides (14C-methyl-SAM) [10]
1 | SET protein from chlorella virus MA-1D | these viral SET proteins had robust methylation activity on wild-type H3 but little or diminished activity on the K27R mutant | these viral SET proteins had robust methylation activity on wild-type H3 but little or diminished activity on the K27R mutant | these viral SET proteins only methylated a H3 peptide containing residues 15-30 but not a peptide containing H3 residues 1-20 | They showed little methyltransferase activity if the H3 peptide was previously di-methylated at K27 or phosphorylated at S28 | They showed little methyltransferase activity if the H3 peptide was previously di-methylated at K27 or phosphorylated at S28 | the SET proteins from these 3 viruses selectively methylate H3 (data not shown) | the SET proteins from these 3 viruses selectively methylate H3 (data not shown) | the SET proteins from these 3 viruses selectively methylate H3 (data not shown) | the SET proteins from these 3 viruses selectively methylate H3 (data not shown) | these viral SET proteins only methylated a H3 peptide containing residues 15-30 but not a peptide containing H3 residues 1-20
2 | SET protein from chlorella virus NY-2A | these viral SET proteins had robust methylation activity on wild-type H3 but little or diminished activity on the K27R mutant | these viral SET proteins had robust methylation activity on wild-type H3 but little or diminished activity on the K27R mutant | these viral SET proteins only methylated a H3 peptide containing residues 15-30 but not a peptide containing H3 residues 1-20 | They showed little methyltransferase activity if the H3 peptide was previously di-methylated at K27 or phosphorylated at S28 | They showed little methyltransferase activity if the H3 peptide was previously di-methylated at K27 or phosphorylated at S28 | the SET proteins from these 3 viruses selectively methylate H3 (data not shown) | the SET proteins from these 3 viruses selectively methylate H3 (data not shown) | the SET proteins from these 3 viruses selectively methylate H3 (data not shown) | the SET proteins from these 3 viruses selectively methylate H3 (data not shown) | these viral SET proteins only methylated a H3 peptide containing residues 15-30 but not a peptide containing H3 residues 1-20
3 | SET protein from chlorella virus NY-2B | these viral SET proteins had robust methylation activity on wild-type H3 but little or diminished activity on the K27R mutant | these viral SET proteins had robust methylation activity on wild-type H3 but little or diminished activity on the K27R mutant | these viral SET proteins only methylated a H3 peptide containing residues 15-30 but not a peptide containing H3 residues 1-20 | They showed little methyltransferase activity if the H3 peptide was previously di-methylated at K27 or phosphorylated at S28 | They showed little methyltransferase activity if the H3 peptide was previously di-methylated at K27 or phosphorylated at S28 | the SET proteins from these 3 viruses selectively methylate H3 (data not shown) | the SET proteins from these 3 viruses selectively methylate H3 (data not shown) | the SET proteins from these 3 viruses selectively methylate H3 (data not shown) | the SET proteins from these 3 viruses selectively methylate H3 (data not shown) | these viral SET proteins only methylated a H3 peptide containing residues 15-30 but not a peptide containing H3 residues 1-20
